# Tests used:
# [1] = system: secretion of soluble MDA-7 protein; assay: Inhibition of glycosylation and secretion of MDA-7 protein; type: cell-based
# Text: Two antibiotics, Tunicamycin and Brefeldin A, have been used to provide a more detailed characterization of the secretion of soluble MDA-7. N-linked glycosylation plays an important role in a protein's ultimate processing, whether it is sorted to a lysosomal pathway, or translocated to the cell surface or secreted. Using Tunicamycin, the N-linked glycosylation process in the […] can be inhibited, thus inhibiting protein secretion or other sugar-dependent sorting processes.
# [2] = system: T47D; assay: Ad-mda7 growth inhibition, 3H-thymidine incorporation assay; type: cell-based, human; conditions: T47D cells; four days after treatment
# Protocol: (§1) Cells were either plated at 500-2000 cells/well in 96-well format for Tritiated thymidine incoporation-Cell Proliferation Assay or plated at 10^5-10^6 cells/well in a 6 well plate for protein expression or Apoptosis assays or plated at 10^4 cells/well for Alamar-blue assay. […]
# (§2) Growth inhibition of cells after treatment is measured by analysis of DNA-synthesis. Briefly, for the ^3H-thymidine incorporation assay cells will be plated at 200-5000 cell per well in a 96-well format and grown in DMEM/10% FBS in a 5% CO2 incubator at 37° C. overnight. The next day the media is aspirated and replace with […] DMEM/10% FBS containing the appropriate adenovirus at the appropriate MOI. Cells will be incubated with infecting media for 1 to 4 hrs and then diluted to […] total volume and grown overnight. Media is replaced with DMEM/10% FBS/mCi ^3H-thymidine and grown for 16 to 18 hrs. Stock solution of 100 uCi/mL of H3-thymidine (Amersham) is prepared by dilution into high glucose DMEM (GIBCO). ^3H-Thymidine was added to each well at a final concentration of 1 μCi/mL. The reaction is stopped 15 hours later by removal of the supernatant from recipient cells. […] The filter were dried and analyzed in Matrix 9600 (Packard) and cell proliferation using Viral Particles/cell against Tritiated Thymidine uptake counts were plotted.
# [3] = system: MCF-7; assay: as above; type: cell-based, human; conditions: MCF-7 cells; four days after treatment; tamoxifen 1 ng/ml
# Protocol: as §1, §2
# [4] = system: Human umbilical vein endothelial cells (HUVEC); assay: Tube formation assay (endothelial differentiation), vectors and Suramin; type: cell-based; conditions: vectors 10,000 vp/cell; Suramin 50 μM; Matrigel
# Protocol: Human umbilical vein endothelial cells (HUVECs; Clonetics) were seeded on 1% gelatin-coated plates and incubated at 37° C. for 24 hours. […] Cells exposed to medium alone served as negative controls while cells exposed to Suramin (50 μM) served as positive controls. After a 48-hour incubation period (37° C. in serum-containing medium), infected cells were harvested, counted, and added to Matrigel-coated 24-well plates in triplicate (1.2×10^5 cells per well). Twenty-four hours later, cells were fixed with 10% buffered formalin and examined for differentiation (tube formation) by using an Olympus IX-70 inverted bright-field microscope at 4× and 10× magnification. cl Example 1
# Tube Formation Assay. Human umbilical vein endothelial cells (HUVECs; Clonetics) were seeded on 1% gelatin-coated plates and incubated at 37° C. for 24 hours. After incubation, cells were infected for 1 hour with Ad-luc or Ad-mda 7 at 10,000 vp/cell in serum-free medium. Cells exposed to medium alone served as negative controls while cells exposed to Suramin (50 μM) served as positive controls. After a 48-hour incubation period (37° C. in serum-containing medium), infected cells were harvested, counted, and added to Matrigel-coated 24-well plates in triplicate (1.2×10^5 cells per well). […]
# [5] = system: PBMC; assay: Secondary cytokine secretion from PBMC (ELISA); type: cell-based, human
# Protocol: FIG. 24. Effect of MDA-7 and IL-10 on inflammatory cytokine secretion from PBMC. Two ml/well (2×10^6 cells/ml) PBMC were plated in a 24 well plate and cultured untreated or with indicated amounts of MDA-7 (B 2 ng/ml; D,F 20 ng/ml), 5 μg/ml LPS, 5 μg/ml PHA, 500 U/ml IL-10 (˜17 ng/ml; R & D Systems, Minneapolis, Minn.) or combination of IL-10 and MDA-7. Supernatants were harvested at 48 hours and analyzed for cytokine content by ELISA (Endogen, Corp) according to manufacturer's instructions. Data from one representative donor are reported. * Indicates values above standard curve.
# FIG. 25. […] Human PBMC were treated with 5 μg/ml LPS, 500 U/ml IL-10, 5 ng/ml MDA-7 or combinations for 48 hours. An equal volume of an S column fraction not containing MDA-7 as determined by Western (an MDA-7 Neg Fraction) was used as a control for buffer/salt content. Supernatants were harvested at 48 hours and analyzed for cytokine content by ELISA (Endogen, Corp) according to manufacturer's instructions. Data from one representative donor are reported. * Indicates value greater than 500 pg/ml IL-1β. ** Actual values are 539 pg/ml IL-12 and 893 pg/ml GM-CSF. Data from one representative donor are reported.
# Activation of PBMC: PBMC were isolated from the peripheral blood of normal healthy donors by centrifugation over Histopaque (Sigma, St. Louis, Mo.). Cells were cultured at a concentration of 1×10^6 cells/ml in RPMI-1640 based media supplemented with L-glutamine, Hepes, penicillin, streptomycin, and 10% human AB serum (Pelfreez, Brown Deer, Wis.) for 72 hr in the presence of PHA-P at 5 μg/ml or LPS 10 μg/ml (both from Sigma, St. Louis, Mo.). Four hours prior to harvest Brefeldin A (BFA, Sigma-Aldrich) was added at a final concentration of 10 μg/ml. The supernatants as well as cells were then harvested.
# ELISA assays. The ELISA reaction to detect human MDA-7 was carried out in 96-well plates using standard techniques and an antibody pair selected for sentivity. Elisa assays for cytokines were perfomed in an identical manner, employing commercially available kits as designated in the figure legends.
# [6] = system: PBMC; assay: PBMC proliferation (thymidine uptake); type: cell-based, human; conditions: 4 days of coculture; three donors
# Text: Some cytokines can also function as growth factors. Therefore the proliferative simulation function of MDA-7 was addressed using PBMC. IL-10 was included as a negative cytokine control.
# [7] = system: H1299 cells; assay: Soluble MDA-7 supernatant killing, trypan blue exclusion; type: cell-based, human; conditions: supernatants, 48 hours
# Protocol: FIG. 11A. Soluble MDA-7 (sMDA7) kills tumor cells. […] All the supernatants used in this experiment were filtered through a 0.1 micron filter prior to challenge with H1299 cells. FIG. 11B. H1299 cells were challenged with soluble MDA-7 supernatant from four different stocks and percentage dead cells evaluated after 48 hours: 1) 293*NF: Non-filtered supernatant obtained from modified 293 cells (cells were grown in serum-free conditions); 2) 293*F: 0.1 micron filtered supernatant obtained from modified 293 cells; 3) 293F: 0.1 micron filtered supernatant obtained from regular 293 cells (FBS+); and 4) H1299F: 0.1 micron filtered supernatant obtained from H1299 cells. D0 is non-diluted material whereas D1:1; D1:5, D1:10 indicate the dilutions used.
# The secreted form of MDA-7 (sMDA-7) was produced using various cell lines and evaluated for anti-tumor activity. Soluble MDA-7 was analyzed for its anti-proliferative effects on H1299 cells. Briefly, H1299 cells were plated at cell density of 10^3 cells/chamber in Nunc chamber slides. 24 hours later, the cells were challenged with supernatants obtained from H1299 cells transduced with either Ad-mda-7 or Ad-luc (at 1000 vp/cell infection). Ad-mda7 and Ad-luc viruses were also used as additional controls. […]
# [8] = system: HUVEC cells; assay: Tube formation with purified MDA-7 protein; type: cell-based, human
# Protocol: HUVEC cells were administered increasing amounts of MDA-7 protein purified from 293-mda7 cells. Doses that were evaluated ranged from 0.5-100 ng/ml. The ED50 of MDA-7 ranged from 5-50 ng/ml. Endothelial differentiation in the cells was inhibited by MDA-7 protein, but not control cells, based on tube formation.
# HUVEC cells were given varying doses of MDA-7 protein purified from 293-mda7 cells (lots 1-6) or from baculovirus exoressing mda-7. A positive control of Ad-mda7 and a negative control of Ad-luc were included in most assays.
# [9] = 500 U/ml IL-10, 5 ng/ml MDA-7, 48 hours
# [10] = 500 U/ml IL-10 added to PBMC stimulated by MDA-7
molecule,measurement,setting,value
Tunicamycin,secretion of soluble MDA-7 protein,[1],effectively inhibit the secretion of soluble MDA-7 protein
C[C@H]1CCC/C=C/[C@@H]2C[C@H](O)C[C@H]2[C@H](O)/C=C/C(=O)O1 [Brefeldin A],secretion of soluble MDA-7 protein,[1],effectively inhibit the secretion of soluble MDA-7 protein
CC/C(=C(\c1ccccc1)c1ccc(OCCN(C)C)cc1)c1ccccc1 [tamoxifen],DNA replication (tritiated thymidine assay),[2],minimal effect
same,DNA replication (tritiated thymidine assay),[3],little effect
Cc1ccc(C(=O)Nc2ccc(S(=O)(=O)O)c3cc(S(=O)(=O)O)cc(S(=O)(=O)O)c23)cc1NC(=O)c1cccc(NC(=O)Nc2cccc(C(=O)Nc3cc(C(=O)Nc4ccc(S(=O)(=O)O)c5cc(S(=O)(=O)O)cc(S(=O)(=O)O)c45)ccc3C)c2)c1 [Suramin],endothelial tube formation,[4],known inhibitor of tube formation
"IL-10: Human recombinant IL-10 purchased from R&D Systems (protein, UniProt P22301 19-178, looked up) Interleukin-10: SPGQGTQSENSCTHFPGNLPNMLRDLRDAFSRVKTFFQMKDQLDNLLLKESLLEDFKGYLGCQALSEMIQFYLEEVMPQAENQDPDIKAHVNSLGENLKTLRLRLRRCHRFLPCENKSKAVEQVKNAFNKLQEKGIYKAMSEFDIFINYIEAYMTMKIRN",effect of IL-10 on GM-CSF production,[5]; [9],partially inhibited
same,effect of IL-10 on IL-1β production,[5]; [9],partially inhibited
same,effect of IL-10 on IL-12 production,[5]; [9],completely inhibited
same,effect of IL-10 on IFNγ induction by MDA-7,[5]; [10],completely abrogated
same,effect of IL-10 on IL-6 induction by MDA-7,[5]; [10],partially blocked
same,effect of IL-10 on TNFα induction by MDA-7,[5]; [10],completely abrogated
same,proliferation (thymidine uptake),[6],did not induce increased thymidine uptake
"soluble MDA-7: secreted form of MDA-7 in filtered supernatants of cells transduced with Ad-mda7 (protein, UniProt Q13007 52-206, looked up) Interleukin-24: QEFHFGPCQVKGVVPQKLWEAFWAVKDTMQAQDNITSARLLQQEVLQNVSDAESCYLVHTLLEFYLKTVFKNYHNRTVEVRTLKSFSTLANNFVLIVSQLQPSQENEMFSIRDSAHRRFLLFRRAFKQLDVEAALTKALGEVDILLTWMQKFYKL",killing of H1299 cells,[7],concentration-dependent bystander killing effect
same,killing of H1299 cells,[7]; listed as soluble MDA-7 protein,showed H1299 killing
"recombinant MDA-7 expressed in E. coli and S. cerevisiae: recombinant MDA-7 expressed in E. coli and S. cerevisiae, used in preliminary experiments (protein, UniProt Q13007 52-206, looked up) Interleukin-24: QEFHFGPCQVKGVVPQKLWEAFWAVKDTMQAQDNITSARLLQQEVLQNVSDAESCYLVHTLLEFYLKTVFKNYHNRTVEVRTLKSFSTLANNFVLIVSQLQPSQENEMFSIRDSAHRRFLLFRRAFKQLDVEAALTKALGEVDILLTWMQKFYKL","secondary cytokine production, preliminary experiments",[5]; very high doses (μg/ml quantities) required,"robust production of IL-6, TNFα, and IFNγ, very low levels of GM-CSF and IL-10, and no IL-2, IL-4, and IL-5"
same,proliferation (thymidine uptake),[6],did not show a proliferative response
MDA-7: human MDA-7 protein secreted by and purified from stably transfected 293 cells (293-mda7) (protein) QEFHFGPCQVKGVVPQKLWEAFWAVKDTMQAQDNITSARLLQQEVLQNVSDAESCYLVHTLLEFYLKTVFKNYHNRTVEVRTLKSFSTLANNFVLIVSQLQPSQENEMFSIRDSAHRRFLLFRRAFKQLDVEAALTKALGEVDILLTWMQKFYKL,lowest doses inhibiting tube formation,[8]; MDA-7 protein from 293-mda7 cells (lots 1-6) or baculovirus,0.5 to 10 ng/mL
same,"ED50 (inhibition of endothelial differentiation, tube formation)","[8]; MDA-7 protein purified from 293-mda7 cells, doses 0.5-100 ng/ml",5 to 50 ng/mL
same,IL-6 secretion,"[5]; 2 ng/ml of MDA-7, above the standard curve of the ELISA kit",greater than 800 pg/ml
same,"IL-1β, IL-12 and GM-CSF secretion","[5]; 5 ng/ml MDA-7, 48 hours","induces IL-1β, IL-12 and GM-CSF secretion"
same,MDA-7 concentration stimulating maximal IL-6 secretion,"[5]; 48 hours, ELISA",200 pg/mL
same,dose required to achieve optimal levels of TNFα and IFNγ secretion,"[5]; 48 hours, ELISA",2 ng/mL
same,induction of TNFα compared with LPS,[5]; LPS 5 μg/ml positive control,more potent inducer than the positive stimulation control LPS
same,proliferation (thymidine uptake),[6],did not induce significant proliferation
